In US20240010696A1 (Pfizer, published 2024):

Tests used:
human PD1 = target: T1, human PD1 (human, UniProt Q15116 25-167, limits assumed); test: binding kinetics to hPD1, method not stated
T1 construct: the construct is not described; also called hPD1; programmed cell death protein 1

[1] = target: human IL-12 receptor on cells (human, UniProt P42701 24-662; Q99665 24-862); test: cell-based or functional assay
Chain of human IL-12 receptor on cells (Q99665 24-862, chain 2 of 2, other chains not shown): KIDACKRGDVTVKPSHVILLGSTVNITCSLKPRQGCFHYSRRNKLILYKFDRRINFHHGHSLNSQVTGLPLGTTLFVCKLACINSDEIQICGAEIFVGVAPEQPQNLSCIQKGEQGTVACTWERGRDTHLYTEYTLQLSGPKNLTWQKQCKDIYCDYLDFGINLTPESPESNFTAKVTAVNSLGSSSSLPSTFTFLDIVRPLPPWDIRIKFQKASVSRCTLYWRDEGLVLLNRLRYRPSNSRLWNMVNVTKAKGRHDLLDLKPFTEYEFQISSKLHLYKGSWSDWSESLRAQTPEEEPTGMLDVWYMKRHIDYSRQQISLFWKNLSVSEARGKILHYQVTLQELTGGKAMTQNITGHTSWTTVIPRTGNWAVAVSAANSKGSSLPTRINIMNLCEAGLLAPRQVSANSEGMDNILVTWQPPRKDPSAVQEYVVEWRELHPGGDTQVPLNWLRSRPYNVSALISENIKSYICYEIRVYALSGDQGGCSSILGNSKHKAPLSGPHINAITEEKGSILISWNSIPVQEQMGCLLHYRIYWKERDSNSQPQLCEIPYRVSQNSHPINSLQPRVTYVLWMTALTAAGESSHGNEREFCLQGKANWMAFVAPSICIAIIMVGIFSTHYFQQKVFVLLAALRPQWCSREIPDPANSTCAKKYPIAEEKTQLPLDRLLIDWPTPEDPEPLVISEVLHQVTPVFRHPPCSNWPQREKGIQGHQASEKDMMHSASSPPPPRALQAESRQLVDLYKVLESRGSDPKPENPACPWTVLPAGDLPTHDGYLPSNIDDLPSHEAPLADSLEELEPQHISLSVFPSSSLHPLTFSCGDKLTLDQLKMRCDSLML

T1 sequence (Q15116 25-167 limits assumed): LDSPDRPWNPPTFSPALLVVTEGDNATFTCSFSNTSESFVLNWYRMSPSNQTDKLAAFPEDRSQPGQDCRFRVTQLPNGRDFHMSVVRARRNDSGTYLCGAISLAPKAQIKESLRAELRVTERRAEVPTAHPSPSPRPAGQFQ

| Kd (human PD1) | koff (human PD1) | kon (human PD1) | t1/2 (human PD1) | CD4 T cell activation assay PSTAT4 EC50 (ug/ml); Donor #1 [1] | CD4 T cell activation assay PSTAT4 EC50 (ug/ml); Donor #2 [1] | Binder |
| --- | --- | --- | --- | --- | --- | --- |
| 3 nM | 0.000391 s⁻¹ | 135000 M⁻¹ s⁻¹ | 1770 s (not printed; inferred from ln2/kd) |  |  | TPP-76868 (antibody, V domains shown) VH: EVQLVESGGGLVQPGGSLRLSCAASGFSFGDFDMRWFRQAPGKGLEWVGLIKSRAYLEATEFAASVEGRFTISRDDAKNSAYLQMNSLRAEDTAVYYCTRDSYSSGLLDYWGQGTLVTVSS VL: DIQMTQSPSSLSASVGDRVTITCRASQGISNYLAWFQQKPGKAPKRLIYAAQIPGSGVPSRFSGSGSGTDFTLTISSLQPEDFATYYCLQHYSYPLTFGGGTKVEIK |
| 7 nM | 0.000765 s⁻¹ | 109000 M⁻¹ s⁻¹ | 906 s (not printed; inferred from ln2/kd) |  |  | TPP-77658 (antibody, V domains shown) VH: EVQLVESGGGLVQPGGSLRLSCAASGFSFGDFDMRWFRQAPGKGLEWVGTIKSRAYLEATEFAASVEGRFTISRDDAKNSAYLQMNSLRAEDTAVYYCTRDAYSSGLLDYWGQGTLVTVSS VL: DIQMTQSPSSLSASVGDRVTITCRASQGISNYLAWFQQKPGKAPKRLIYAAQIPGSGVPSRFSGSGSGTDFTLTISSLQPEDFATYYCLQHYSYPLTFGGGTKVEIK |
| 3 nM | 0.000251 s⁻¹ | 78500 M⁻¹ s⁻¹ | 2760 s (not printed; inferred from ln2/kd) |  |  | TPP-68807 (antibody, V domains shown) VH: EVQLVESGGGLVQPGGSLRLSCAASGFSFGDFDMRWFRQAPGKGLEWVGLIKSKAYRYATEFAASVEGRFTISRDDAKNSAYLQMNSLRAEDTAVYYCTRDSYSSGLLDYWGQGTLVTVSS VL: DIQMTQSPSSLSASVGDRVTITCRASQGISNYLAWFQQKPGKAPKRLIYAASIPGSGVPSRFSGSGSGTDFTLTISSLQPEDFATYYCLQHKSYPLTFGGGTKVEIK |
|  |  |  |  | 0.139 µg/mL | 0.998 µg/mL | H10/TPP-76868 fusion protein (other) heavy 1: EVQLVESGGGLVQPGGSLRLSCAASGFSFGDFDMRWFRQAPGKGLEWVGLIKSRAYLEATEFAASVEGRFTISRDDAKNSAYLQMNSLRAEDTAVYYCTRDSYSSGLLDYWGQGTLVTVSSASTKGPSVFPLAPSSKSTSGGTAALGCLVKDYFPEPVTVSWNSGALTSGVHTFPAVLQSSGLYSLSSVVTVPSSSLGTQTYICNVNHKPSNTKVDKKVEPKSCDKTHTCPPCPAPEAAGAPSVFLFPPKPKDTLMISRTPEVTCVVVDVSHEDPEVKFNWYVDGVEVHNAKTKPREEQYNSTYRVVSVLTVLHQDWLNGKEYKCKVSNKALPAPIEKTISKAKGQPREPQVYTLPPCREEMTKNQVSLSCAVKGFYPSDIAVEWESNGQPENNYKTTPPVLDSDGSFFLVSKLTVDKSRWQQGNVFSCSVMHEALHNHYTQKSLSLSPGK heavy 2: EVQLVESGGGLVQPGGSLRLSCAASGFSFGDFDMRWFRQAPGKGLEWVGLIKSRAYLEATEFAASVEGRFTISRDDAKNSAYLQMNSLRAEDTAVYYCTRDSYSSGLLDYWGQGTLVTVSSASTKGPSVFPLAPSSKSTSGGTAALGCLVKDYFPEPVTVSWNSGALTSGVHTFPAVLQSSGLYSLSSVVTVPSSSLGTQTYICNVNHKPSNTKVDKKVEPKSCDKTHTCPPCPAPEAAGAPSVFLFPPKPKDTLMISRTPEVTCVVVDVSHEDPEVKFNWYVDGVEVHNAKTKPREEQYNSTYRVVSVLTVLHQDWLNGKEYKCKVSNKALPAPIEKTISKAKGQPREPQVCTLPPSREEMTKNQVSLWCLVKGFYPSDIAVEWESNGQPENNYKTTPPVLDSDGSFFLYSKLTVDKSRWQQGNVFSCSVMHEALHNHYTQKSLSLSPGSGGGGSGGGGSGGGGRNLPVATPDPGMFPCLHHSQNLLRAVSNMLQKARQTLEFYPCTSEEIDHEDITKDKTSTVEACLPLELTKNESCLNSRETSFITNGSCLASRKTSFMMALCLSSIYEDLKMYQVEFKTMNAKLLMDPKRQIFLDQNMLAVIDELMQALNFNSETVPQKSSLEEPDFAKTKIKLCILLHAFRIRAVTIDRVMSYLNAS light: DIQMTQSPSSLSASVGDRVTITCRASQGISNYLAWFQQKPGKAPKRLIYAAQIPGSGVPSRFSGSGSGTDFTLTISSLQPEDFATYYCLQHYSYPLTFGGGTKVEIKRTVAAPSVFIFPPSDEQLKSGTASVVCLLNNFYPREAKVQWKVDNALQSGNSQESVTEQDSKDSTYSLSSTLTLSKADYEKHKVYACEVTHQGLSSPVTKSFNRGEC IWELKKDVYVVELDWYPDAPGEMVVLTCDTPEEDGITWTLDQSSEVLGSGKTLTIQVKEFGDAGQYTCHKGGEVLSHSLLLLHKKEDGIWSTLILKDQKEPKNKTFLRCEAKNYSGRFTCWWLTTISTDLTFSVKSSRGSSDPQGVTCGAATLSAERVRGDNKEYEYSVECQEDSACPAAEESLPIEVMVDAVHKLKYENYTSSFFIRDIIKPDPPKNLQLKPLKNSRQVEVSWEYPDTWSTPHSYFSLTFCVQVQGGGGDRVFTDKTSATVICRKNASISVRAQDRYYSSSWSEWASVPCS |
|  |  |  |  | 0.235 µg/mL | 1.54 µg/mL | H10/TPP-77658 fusion protein (other) heavy 1: EVQLVESGGGLVQPGGSLRLSCAASGFSFGDFDMRWFRQAPGKGLEWVGTIKSRAYLEATEFAASVEGRFTISRDDAKNSAYLQMNSLRAEDTAVYYCTRDAYSSGLLDYWGQGTLVTVSSASTKGPSVFPLAPSSKSTSGGTAALGCLVKDYFPEPVTVSWNSGALTSGVHTFPAVLQSSGLYSLSSVVTVPSSSLGTQTYICNVNHKPSNTKVDKKVEPKSCDKTHTCPPCPAPEAAGAPSVFLFPPKPKDTLMISRTPEVTCVVVDVSHEDPEVKFNWYVDGVEVHNAKTKPREEQYNSTYRVVSVLTVLHQDWLNGKEYKCKVSNKALPAPIEKTISKAKGQPREPQVYTLPPCREEMTKNQVSLSCAVKGFYPSDIAVEWESNGQPENNYKTTPPVLDSDGSFFLVSKLTVDKSRWQQGNVFSCSVMHEALHNHYTQKSLSLSPGK heavy 2: EVQLVESGGGLVQPGGSLRLSCAASGFSFGDFDMRWFRQAPGKGLEWVGTIKSRAYLEATEFAASVEGRFTISRDDAKNSAYLQMNSLRAEDTAVYYCTRDAYSSGLLDYWGQGTLVTVSSASTKGPSVFPLAPSSKSTSGGTAALGCLVKDYFPEPVTVSWNSGALTSGVHTFPAVLQSSGLYSLSSVVTVPSSSLGTQTYICNVNHKPSNTKVDKKVEPKSCDKTHTCPPCPAPEAAGAPSVFLFPPKPKDTLMISRTPEVTCVVVDVSHEDPEVKFNWYVDGVEVHNAKTKPREEQYNSTYRVVSVLTVLHQDWLNGKEYKCKVSNKALPAPIEKTISKAKGQPREPQVCTLPPSREEMTKNQVSLWCLVKGFYPSDIAVEWESNGQPENNYKTTPPVLDSDGSFFLYSKLTVDKSRWQQGNVFSCSVMHEALHNHYTQKSLSLSPGSGGGGSGGGGSGGGGRNLPVATPDPGMFPCLHHSQNLLRAVSNMLQKARQTLEFYPCTSEEIDHEDITKDKTSTVEACLPLELTKNESCLNSRETSFITNGSCLASRKTSFMMALCLSSIYEDLKMYQVEFKTMNAKLLMDPKRQIFLDQNMLAVIDELMQALNFNSETVPQKSSLEEPDFAKTKIKLCILLHAFRIRAVTIDRVMSYLNAS light: DIQMTQSPSSLSASVGDRVTITCRASQGISNYLAWFQQKPGKAPKRLIYAAQIPGSGVPSRFSGSGSGTDFTLTISSLQPEDFATYYCLQHYSYPLTFGGGTKVEIKRTVAAPSVFIFPPSDEQLKSGTASVVCLLNNFYPREAKVQWKVDNALQSGNSQESVTEQDSKDSTYSLSSTLTLSKADYEKHKVYACEVTHQGLSSPVTKSFNRGEC IWELKKDVYVVELDWYPDAPGEMVVLTCDTPEEDGITWTLDQSSEVLGSGKTLTIQVKEFGDAGQYTCHKGGEVLSHSLLLLHKKEDGIWSTLILKDQKEPKNKTFLRCEAKNYSGRFTCWWLTTISTDLTFSVKSSRGSSDPQGVTCGAATLSAERVRGDNKEYEYSVECQEDSACPAAEESLPIEVMVDAVHKLKYENYTSSFFIRDIIKPDPPKNLQLKPLKNSRQVEVSWEYPDTWSTPHSYFSLTFCVQVQGGGGDRVFTDKTSATVICRKNASISVRAQDRYYSSSWSEWASVPCS |
